Measurements taken from patent US20080020984A1, “Crystal Structure of a Receptor-Ligand Complex and Methods of Use” (priority 2006, published 2008).
Changes are numbered by the printed parent chain. Where a SMILES comes first, the peptide text is derived from it. Where no end group is shown, it is not given here. The star is where a group is joined. X1 = CC1N=c2c(cc3c(c2S(=O)(=O)O)Oc2c(cc4c(c2S(=O)(=O)O)NC(C)C4(C)C)C=3c2ccc(C(=O)*)cc2)C1(C)C

Assays:
[1] = molecular target: T1, human EphB4 ephrin-binding domain, EphB4 (wt), EphB4 (17-196) (Homo sapiens, UniProt P54760); assay: Isothermal titration calorimetry (ITC), wild-type EphB4; conditions: Table 5, receptor EphB4 (wt)
T1 sequence (P54760 17-196): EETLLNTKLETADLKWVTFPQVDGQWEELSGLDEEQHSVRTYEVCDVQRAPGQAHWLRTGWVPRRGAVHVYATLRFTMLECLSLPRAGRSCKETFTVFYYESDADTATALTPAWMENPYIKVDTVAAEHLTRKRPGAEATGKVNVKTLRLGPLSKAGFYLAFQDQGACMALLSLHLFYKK
Description: All mutants and ligands were dialyzed into buffer containing 50 mM Tris-Cl (pH 7.8), 150 mM NaCl, and 1 mM CaCl2 prior to use in isothermal titration calorimetry (ITC) experiments. All experiments were performed with a Microcal MCS ITC at 25° C. […] Data for these titrations were fit assuming a stoichiometry of 1 and at least 60% saturation at the final peptide concentration as described (19,34).
Peptides were dissolved into the same buffer used for the dialysis of EphB4. […] ITC experiments were performed with a Microcal MCS ITC at 25° C. Following an initial injection of 2 μl, titrations were performed by making 20 13 μl injections of peptide into EphB4 in the sample cell to produce an approximate final 2:1 ratio of injectant to sample in the cell. […] Prior to loading the sample cell, EphB4 was centrifuged at 18,000 g for 5 min at 4° C. to remove aggregates and degassed for 5 minutes at room temperature. […] Dilution data were fit to a line and subtracted from the corresponding titration data.

[2] = molecular target: Alexa-532-TNYL-RAW peptide; assay: fluorescence polarization, EphB4 titrated into 75 nM Alexa-532-TNYL-RAW
[3] = molecular target: Alexa-532-TNYL-RAW peptide; assay: fluorescence polarization
EphB4 L95R = molecular target: T2, EphB4 L95R (Homo sapiens, UniProt P54760, L95R); assay: Fluorescence polarization binding of Alexa-532-TNYL-RAW, EphB4 L95R; conditions: EphB4 Leu95Arg mutant
T2 construct: GP64 signal peptide (N, cleaved yes); made in house; host or cells: Hi5 insect cells (baculovirus, secreted)
T2 sequence (P54760 17-196 L95R): T1 sequence (P54760 17-196) with L79R
Description: (§1) This Example illustrates fluorescence polarization (FP) assays using a fluorescently-labeled reporter peptide to measure binding of various ligands to the EphB4-LBD.
(§2) All experimental data were analyzed using Prism 4.0 software (GraphPad Software Inc., San Diego, Calif.) and Kd values were generated by fitting the experimental data using a one-site binding hyperbola nonlinear regression model or equation 8.10 (.www.invitrogen.com/downloads/FP8.pdf).
(§3) The construct was sequence verified, and baculovirus was generated with homologous recombination into Sapphire Baculovirus DNA (Orbigen, San Diego, Calif.) following the manufacturer's protocol (10). The wtEphB4 construct was used as a template for generation of site specific mutants.

EphB4 T147F = molecular target: T3, EphB4 T147F (Homo sapiens, UniProt P54760, T147F); assay: Fluorescence polarization binding of Alexa-532-TNYL-RAW, EphB4 T147F; conditions: FP; EphB4 mutant Thr147Phe
T3 construct: GP64 signal peptide (N, cleaved yes); made in house; host or cells: Hi5 insect cells (baculovirus, secreted)
T3 sequence (P54760 17-196 T147F): T1 sequence (P54760 17-196) with T131F
Description: as §1, §2, §3

EphB4 K149Q = molecular target: T4, EphB4 K149Q (Homo sapiens, UniProt P54760, K149Q); assay: Fluorescence polarization binding of Alexa-532-TNYL-RAW, EphB4 K149Q; conditions: FP; EphB4 mutant Lys149Gln
T4 construct: GP64 signal peptide (N, cleaved yes); made in house; host or cells: Hi5 insect cells (baculovirus, secreted)
T4 sequence (P54760 17-196 K149Q): T1 sequence (P54760 17-196) with K133Q
Description: as §1, §2, §3

EphB4 A186S = molecular target: T5, EphB4 A186S (Homo sapiens, UniProt P54760, A186S); assay: Fluorescence polarization binding of Alexa-532-TNYL-RAW, EphB4 A186S; conditions: FP; EphB4 mutant Ala186Ser
T5 construct: GP64 signal peptide (N, cleaved yes); made in house; host or cells: Hi5 insect cells (baculovirus, secreted)
T5 sequence (P54760 17-196 A186S): T1 sequence (P54760 17-196) with A170S
Description: as §1, §2, §3

[4] = molecular target: human EphB4 (17-196) K149Q mutant (human); assay: ITC
[5] = molecular target: human EphB4 (17-196) L95R mutant (human); assay: ITC
[6] = molecular target: human EphB4 (17-196) K149Q mutant (human); assay: ITC, 25 °C
[7] = molecular target: human EphB4 (17-196) ligand binding domain, wild type (human); assay: ITC, 25 °C
[8] = molecular target: human EphB4 (17-196) K149Q mutant (human); assay: ITC, 25 °C, 50 mM Tris pH 7.8, 150 mM NaCl, 1 mM CaCl2
[9] = molecular target: human EphB4 (17-196) ligand binding domain, wild type (human); assay: as above
[10] = molecular target: human EphB4 (17-196) ligand binding domain, wild type (human); assay: FP competition, unlabeled TNYL-RAW against Alexa-532-TNYL-RAW on wtEphB4 (FIG. 7)
[11] = molecular target: human EphB4 (17-196) K149Q mutant (human); assay: FP competition, unlabeled TNYL-RAW against Alexa-532-TNYL-RAW on EphB4 K149Q (FIG. 7)
[12] = molecular target: human EphB4 (17-196) L95R mutant (human); assay: ITC, 25 °C, 2 mM TNYL-RAW in the syringe, 15 µM EphB4 (L95R) in the cell; fit assuming stoichiometry of 1
[13] = molecular target: human EphB4 (17-196) L95R mutant (human); assay: ITC, 25 °C
[14] = molecular target: human EphB4 (17-196) K149Q mutant (human); assay: ITC in phosphate buffer
[15] = molecular target: human EphB4 (17-196) L95R mutant (human); assay: ITC, 25 °C, 50 mM Tris pH 7.8, 150 mM NaCl, 1 mM CaCl2

## LASPNGPIARAW [LFSP-RAW(F to A)]
[1]
  ΔH: −7.9 ± 0.9 koal mol−1

## human EphB4 (17-196) R150V mutant (receptor)
[2]
  Kd: 6.1 nM

## human EphB4 (17-196) K149Q mutant (receptor)
[3]
  assay window: 12 fold
[2]
  Kd: 23 nM

## CC[C@H](C)[C@H](NC(=O)[C@@H]1CCCN1C(=O)CNC(=O)[C@H](CC(N)=O)NC(=O)[C@@H]1CCCN1C(=O)[C@H](CO)NC(=O)[C@H](Cc1ccccc1)NC(=O)[C@H](CC(C)C)NC(=O)[C@H](Cc1ccc(O)cc1)NC(=O)[C@H](CC(N)=O)NC(=O)[C@@H](NC(=O)c1ccc(C2=c3cc4c(c(S(=O)(=O)O)c3Oc3c2cc2c(c3S(=O)(=O)O)NC(C)C2(C)C)=NC(C)C4(C)C)cc1)[C@@H](C)O)C(=O)N[C@@H](C)C(=O)N[C@@H](CCCNC(=N)N)C(=O)N[C@@H](C)C(=O)N[C@@H](Cc1c[nH]c2ccccc12)C(=O)O (stereo partly shown) [Alexa-532-TNYL-RAW] (X1-TNYLFSPNGPIARAW-OH; N-terminus and C-terminus assumed)
EphB4 L95R
  binding of the peptide in FP assay: did not exhibit significant binding
EphB4 T147F
  reduction in binding affinity versus wild type: 4-5 fold
EphB4 K149Q
  reduction in binding affinity versus wild type: 4-5 fold
EphB4 A186S
  reduction in binding affinity versus wild type: 4-5 fold

## human EphB4 (17-196) ligand binding domain, wild type (receptor)
[3]
  assay window: 6 fold
[2]
  Kd: 5 nM

## CC[C@H](C)[C@H](NC(=O)[C@@H]1CCCN1C(=O)CNC(=O)[C@H](CC(N)=O)NC(=O)[C@@H]1CCCN1C(=O)[C@H](CO)NC(=O)[C@H](Cc1ccccc1)NC(=O)[C@H](CC(C)C)NC(=O)[C@H](Cc1ccc(O)cc1)NC(=O)[C@H](CC(N)=O)NC(=O)[C@@H](N)[C@@H](C)O)C(=O)N[C@@H](C)C(=O)O [TNYL]
[1]
  ΔH: −9.6 ± 0.3 koal mol−1

## human EphB4 (17-196) T147F mutant (receptor)
[2]
  Kd: 25 nM

## human EphB4 (17-196) R148S mutant (receptor)
[2]
  Kd: 4.5 nM

## human EphB4 (17-196) RKR148-150SQV mutant (receptor)
[2]
  Kd: 21 nM

## human EphB4 (17-196) A186S mutant (receptor)
[2]
  Kd: 16 nM

## TNYL-RAW peptide
[4]
  fold reduction of affinity against wild-type EphB4: 3 fold
[5]
  fold reduction of affinity against wild-type EphB4: 500 fold
[6]
  Kd: 250 nM
  TΔS: -2.7 kcal/mol
  ΔG: -9 kcal/mol
  ΔH: -11.7 kcal/mol
[7]
  Kd: 71 nM
  TΔS: -4.9 kcal/mol
  ΔG: -9.8 kcal/mol
  ΔH: -14.7 kcal/mol
[8]
  Kd: 160 nM
  TΔS: -3.2 kcal/mol
  ΔG: -9.4 kcal/mol
  ΔH: -12.5 kcal/mol
[9]
  Kd: 71 nM
  TΔS: -4.9 kcal/mol
  ΔG: -9.8 kcal/mol
  ΔH: -14.7 kcal/mol
[10]
  Ki: 100 nM
[11]
  Ki: 170 nM
[12]
  Kd: 35900 nM
  TΔS: -5.8 kcal/mol
  ΔG: -6.1 kcal/mol
  ΔH: -12 kcal/mol

## human ephrinB2 (extracellular domain; residues 25-187) (ligand)
[6]
  Kd: 20 nM
  TΔS: 14.1 kcal/mol
  ΔG: -10.5 kcal/mol
  ΔH: 3.6 kcal/mol
[13]
  Kd: 1900 nM
  TΔS: 13 kcal/mol
  ΔG: -7.8 kcal/mol
  ΔH: 5.2 kcal/mol
[7]
  Kd: 40 nM
  TΔS: 13.4 kcal/mol
  ΔG: -10.2 kcal/mol
  ΔH: 3.3 kcal/mol
[14]
  ΔHobs: 3.9 kcal/mol
[8]
  Kd: 20 nM
  TΔS: 14.4 kcal/mol
  ΔG: -10.6 kcal/mol
  ΔH: 3.7 kcal/mol
[15]
  Kd: 1900 nM
  TΔS: 13 kcal/mol
  ΔG: -7.8 kcal/mol
  ΔH: 5.2 kcal/mol
[9]
  Kd: 40 nM
  TΔS: 13.4 kcal/mol
  ΔG: -10.2 kcal/mol
  ΔH: 3.3 kcal/mol
